T1: rat NPR-A (rat, UniProt P18910 29-1057)
T1 sequence (looked up): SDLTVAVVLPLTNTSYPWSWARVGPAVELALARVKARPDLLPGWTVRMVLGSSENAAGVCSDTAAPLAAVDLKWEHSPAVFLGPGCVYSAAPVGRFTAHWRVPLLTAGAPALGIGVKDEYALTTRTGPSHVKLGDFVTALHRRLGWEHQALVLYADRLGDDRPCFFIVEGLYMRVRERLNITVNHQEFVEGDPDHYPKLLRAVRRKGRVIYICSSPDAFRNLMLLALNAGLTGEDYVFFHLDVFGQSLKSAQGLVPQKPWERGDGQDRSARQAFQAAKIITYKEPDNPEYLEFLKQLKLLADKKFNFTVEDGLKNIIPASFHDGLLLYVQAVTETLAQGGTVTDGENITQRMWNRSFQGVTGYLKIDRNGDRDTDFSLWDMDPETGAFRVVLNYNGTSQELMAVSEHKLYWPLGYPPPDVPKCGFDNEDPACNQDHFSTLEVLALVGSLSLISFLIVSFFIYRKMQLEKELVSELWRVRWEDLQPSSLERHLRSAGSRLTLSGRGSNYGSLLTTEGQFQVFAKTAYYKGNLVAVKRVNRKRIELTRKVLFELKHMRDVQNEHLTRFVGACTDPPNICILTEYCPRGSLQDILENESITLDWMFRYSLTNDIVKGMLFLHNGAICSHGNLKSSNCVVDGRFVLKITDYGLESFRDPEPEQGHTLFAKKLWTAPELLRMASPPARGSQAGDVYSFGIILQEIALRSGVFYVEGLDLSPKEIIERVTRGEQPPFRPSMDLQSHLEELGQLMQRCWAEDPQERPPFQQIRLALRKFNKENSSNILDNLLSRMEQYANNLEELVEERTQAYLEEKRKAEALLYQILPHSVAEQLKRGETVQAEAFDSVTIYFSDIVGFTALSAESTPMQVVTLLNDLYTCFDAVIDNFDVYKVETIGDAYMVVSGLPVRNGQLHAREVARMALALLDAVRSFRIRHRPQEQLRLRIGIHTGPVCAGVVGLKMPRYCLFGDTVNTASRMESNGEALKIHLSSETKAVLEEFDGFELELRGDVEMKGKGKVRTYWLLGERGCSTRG

T2: rat NPR-B (rat, UniProt P16067 17-1047)
T2 sequence (looked up): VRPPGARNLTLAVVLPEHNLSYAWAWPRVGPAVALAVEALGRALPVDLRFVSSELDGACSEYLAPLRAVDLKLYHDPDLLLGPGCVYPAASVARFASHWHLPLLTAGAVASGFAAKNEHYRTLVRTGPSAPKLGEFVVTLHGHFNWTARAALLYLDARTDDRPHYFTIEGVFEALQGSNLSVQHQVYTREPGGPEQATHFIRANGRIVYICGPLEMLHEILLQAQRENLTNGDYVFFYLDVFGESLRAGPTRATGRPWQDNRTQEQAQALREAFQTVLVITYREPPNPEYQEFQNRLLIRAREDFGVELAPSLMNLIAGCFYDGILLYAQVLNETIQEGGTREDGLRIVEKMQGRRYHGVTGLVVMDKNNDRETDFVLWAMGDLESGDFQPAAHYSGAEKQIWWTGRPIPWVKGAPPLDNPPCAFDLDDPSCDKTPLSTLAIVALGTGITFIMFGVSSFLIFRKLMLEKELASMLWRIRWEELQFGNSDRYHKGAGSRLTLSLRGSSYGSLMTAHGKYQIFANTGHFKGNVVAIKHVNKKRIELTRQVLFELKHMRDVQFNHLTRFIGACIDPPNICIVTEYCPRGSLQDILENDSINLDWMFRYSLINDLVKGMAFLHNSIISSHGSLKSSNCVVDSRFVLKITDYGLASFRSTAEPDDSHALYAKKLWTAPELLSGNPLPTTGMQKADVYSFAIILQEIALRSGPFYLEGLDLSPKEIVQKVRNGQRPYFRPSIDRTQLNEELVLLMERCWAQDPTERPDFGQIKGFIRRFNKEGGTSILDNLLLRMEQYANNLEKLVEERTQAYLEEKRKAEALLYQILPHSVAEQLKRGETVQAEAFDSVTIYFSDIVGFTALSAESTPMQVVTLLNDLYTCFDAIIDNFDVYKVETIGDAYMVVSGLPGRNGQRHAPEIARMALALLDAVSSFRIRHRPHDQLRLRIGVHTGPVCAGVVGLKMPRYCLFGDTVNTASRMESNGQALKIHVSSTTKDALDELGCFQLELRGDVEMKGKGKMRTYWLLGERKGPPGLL

T3: human NPRA (hNPRA) (human, UniProt P16066 33-1061)
T3 sequence (looked up): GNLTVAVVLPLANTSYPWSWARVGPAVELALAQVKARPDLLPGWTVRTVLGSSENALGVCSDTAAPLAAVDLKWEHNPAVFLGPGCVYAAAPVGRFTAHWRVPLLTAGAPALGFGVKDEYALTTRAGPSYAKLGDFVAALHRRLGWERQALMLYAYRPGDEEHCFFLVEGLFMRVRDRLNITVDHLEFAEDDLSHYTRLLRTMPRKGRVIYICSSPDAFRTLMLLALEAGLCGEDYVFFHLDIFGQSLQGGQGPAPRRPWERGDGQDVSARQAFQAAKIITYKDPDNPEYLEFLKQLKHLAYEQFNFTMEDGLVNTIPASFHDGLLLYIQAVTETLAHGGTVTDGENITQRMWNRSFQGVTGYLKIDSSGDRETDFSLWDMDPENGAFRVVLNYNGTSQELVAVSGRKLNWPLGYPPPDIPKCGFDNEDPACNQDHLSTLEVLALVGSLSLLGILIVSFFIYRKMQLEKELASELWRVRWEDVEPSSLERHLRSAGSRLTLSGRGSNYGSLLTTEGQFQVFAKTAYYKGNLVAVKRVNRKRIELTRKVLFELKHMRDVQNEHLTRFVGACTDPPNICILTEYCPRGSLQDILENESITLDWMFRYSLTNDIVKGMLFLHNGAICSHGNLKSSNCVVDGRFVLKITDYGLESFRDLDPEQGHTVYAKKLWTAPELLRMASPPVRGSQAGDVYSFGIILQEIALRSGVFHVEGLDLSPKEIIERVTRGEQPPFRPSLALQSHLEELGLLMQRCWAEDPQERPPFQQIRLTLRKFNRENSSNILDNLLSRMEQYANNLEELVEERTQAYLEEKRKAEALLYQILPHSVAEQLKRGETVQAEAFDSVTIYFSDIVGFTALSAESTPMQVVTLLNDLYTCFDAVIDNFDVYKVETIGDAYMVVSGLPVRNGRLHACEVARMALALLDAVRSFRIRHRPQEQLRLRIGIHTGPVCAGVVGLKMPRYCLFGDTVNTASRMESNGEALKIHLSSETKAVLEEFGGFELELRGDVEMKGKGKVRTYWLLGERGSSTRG


Tests used:
Experiment in all cases: cell-based or functional assay
[1] = molecular target: T1, rat NPR-A
[2] = molecular target: T2, rat NPR-B
[3] = molecular target: T3, human NPRA (hNPRA)

Binder | EC50, fluorescence signal of rat NPR-A / CNGA2 (cGMP biosensor) / GCaMP6 CHO reporter cells [1] | EC50 on rNPRA reporter cells [1] | EC50, luminescence signal of rat NPR-B reporter cells [2] | further results
TPP-11154 (antibody, V domains shown) VH: EVQLLESGGGLVQPGGSLRLSCAASGFTFSSYAMSWVRQAPGKGLEWVSAISGSGGSTYYADSVKGRFTISRDNSKNTLYLQMNSLRAEDTAVYYCTSVHQETKKYQSSPDGGSGGGSYSYTYNYEWHVDVWGQGTLVTVSS VL: QSVLTQPPSVSGAPGQRVTISCTGSSSNIGAGYDVHWYQQLPGTAPKLLIYGNSNRPSGVPDRFSGSKSGTSASLAITGLQAEDEADYYCQSYDSSLSGVVFGGGTKLTVLG | 7 nM | < 20 nM | – | –
TPP-11153 (antibody, V domains shown) VH: EVQLLESGGGLVQPGGSLRLSCAASGFTFSSYAMSWVRQAPGKGLEWVSAISGSGGSTYYADSVKGRFTISRDNSKNTLYLQMNSLRAEDTAVYYCTSVHQETKKYQSSPDGGSGGSGGGSYSYTYNYEWHVDVWGQGTLVTVSS VL: QSVLTQPPSVSGAPGQRVTISCTGSSSNIGAGYDVHWYQQLPGTAPKLLIYGNSNRPSGVPDRFSGSKSGTSASLAITGLQAEDEADYYCQSYDSSLSGVVFGGGTKLTVLG | > 1900 nM | > 1000 nM | – | –
TPP-9465 (antibody) heavy: not shown light: QSVLTQPPSVSGAPGQRVTISCTGSSSNIGAGYDVHWYQQLPGTAPKLLIYGNSNRPSGVPDRFSGSKSGTSASLAITGLQAEDEADYYCQSYDSSLSGVVFGGGTKLTVLGQPKAAPSVTLFPPSSEELQANKATLVCLISDFYPGAVTVAWKADSSPVKAGVETTTPSKQSNNKYAASSYLSLTPEQWKSHRSYSCQVTHEGSTVEKTVAPTECS | – | – | 5.2 nM | –
TPP-12377 (antibody) heavy: not shown light: QSVLTQPPSVSGAPGQRVTISCTGSSSNIGAGYDVHWYQQLPGTAPKLLIYGNSNRPSGVPDRFSGSKSGTSASLAITGLQAEDEADYYCQSYDSSLSGVVFGGGTKLTVLGQPKAAPSVTLFPPSSEELQANKATLVCLISDFYPGAVTVAWKADSSPVKAGVETTTPSKQSNNKYAASSYLSLTPEQWKSHRSYSCQVTHEGSTVEKTVAPTECS | – | – | 4.1 nM | –
TPP-9902 (antibody) heavy: not shown light: QSVLTQPPSVSGAPGQRVTISCTGSSSNIGAGYDVHWYQQLPGTAPKLLIYGNSNRPSGVPDRFSGSKSGTSASLAITGLQAEDEADYYCQSYDSSLSGVVFGGGTKLTVLGQPKAAPSVTLFPPSSEELQANKATLVCLISDFYPGAVTVAWKADSSPVKAGVETTTPSKQSNNKYAASSYLSLTPEQWKSHRSYSCQVTHEGSTVEKTVAPTECS | 2300 nM | > 1000 nM | – | –

Continued, in another order:

EC50, fluorescence signal of rat NPR-A / CNGA2 (cGMP biosensor) / GCaMP6 CHO reporter cells [1] | EC50 on rNPRA reporter cells [1] | EC50, luminescence signal of rat NPR-B reporter cells [2] | Binder | further results
12 nM | < 20 nM | – | TPP-11155 (antibody, V domains shown) VH: EVQLLESGGGLVQPGGSLRLSCAASGFTFSSYAMSWVRQAPGKGLEWVSAISGSGGSTYYADSVKGRFTISRDNSKNTLYLQMNSLRAEDTAVYYCTSVHQETKKYQSSPDGGSYSYTYNYEWHVDVWGQGTLVTVSS VL: QSVLTQPPSVSGAPGQRVTISCTGSSSNIGAGYDVHWYQQLPGTAPKLLIYGNSNRPSGVPDRFSGSKSGTSASLAITGLQAEDEADYYCQSYDSSLSGVVFGGGTKLTVLG | –
– | – | 10 nM | TPP-12897 (antibody) heavy: not shown light: QSVLTQPPSVSGAPGQRVTISCTGSSSNIGAGYDVHWYQQLPGTAPKLLIYGNSNRPSGVPDRFSGSKSGTSASLAITGLQAEDEADYYCQSYDSSLDGVVFGGGTKLTVLGQPKAAPSVTLFPPSSEELQANKATLVCLISDFYPGAVTVAWKADSSPVKAGVETTTPSKQSNNKYAASSYLSLTPEQWKSHRSYSCQVTHEGSTVEKTVAPTECS | –
17 nM | – | – | TPP-5661 (antibody) heavy: not shown light: QSVLTQPPSVSGAPGQRVTISCTGSSSNIGAGYDVHWYQQLPGTAPKLLIYGNSNRPSGVPDRFSGSKSGTSASLAITGLQAEDEADYYCQSYDSSLSGVVFGGGTKLTVLGQPKAAPSVTLFPPSSEELQANKATLVCLISDFYPGAVTVAWKADSSPVKAGVETTTPSKQSNNKYAASSYLSLTPEQWKSHRSYSCQVTHEGSTVEKTVAPTECS | logEC50, cGMP quantification assay (HTRF), stable hNPRA-CHO k1 cells, isolated compound sample [3]: -8.8; logEC50, cGMP quantification assay (HTRF), stable hNPRA-CHO k1 cells, purified compound sample, average of experiments [3]: -9.2; logEC50, cGMP quantification assay (HTRF), transient hNPRA-HEK293 cells, purified compound sample, average of three experiments [3]: -9
